# Results taken from PMC8580825, “Scaffolding protein CcmM directs multiprotein phase separation in β-carboxysome biogenesis” (Nature Structural & Molecular Biology, 2021).
# Numbering of substitutions follows the chain as printed.
# T1: M58(R164D) (Synechococcus elongatus PCC 7942, UniProt Q03513 1-539, R164D)
# T1 construct: CcmM (M58), Synechococcus elongatus PCC 7942, point mutant in the γCAL domain (head-to-head salt bridge); also called SeM58-R164D; M58oxR164D; source: E. coli BL21 (DE3), purified as wild-type M58; not shown: His6-ubiquitin, N-terminal, cleaved
# T1 sequence (looked up): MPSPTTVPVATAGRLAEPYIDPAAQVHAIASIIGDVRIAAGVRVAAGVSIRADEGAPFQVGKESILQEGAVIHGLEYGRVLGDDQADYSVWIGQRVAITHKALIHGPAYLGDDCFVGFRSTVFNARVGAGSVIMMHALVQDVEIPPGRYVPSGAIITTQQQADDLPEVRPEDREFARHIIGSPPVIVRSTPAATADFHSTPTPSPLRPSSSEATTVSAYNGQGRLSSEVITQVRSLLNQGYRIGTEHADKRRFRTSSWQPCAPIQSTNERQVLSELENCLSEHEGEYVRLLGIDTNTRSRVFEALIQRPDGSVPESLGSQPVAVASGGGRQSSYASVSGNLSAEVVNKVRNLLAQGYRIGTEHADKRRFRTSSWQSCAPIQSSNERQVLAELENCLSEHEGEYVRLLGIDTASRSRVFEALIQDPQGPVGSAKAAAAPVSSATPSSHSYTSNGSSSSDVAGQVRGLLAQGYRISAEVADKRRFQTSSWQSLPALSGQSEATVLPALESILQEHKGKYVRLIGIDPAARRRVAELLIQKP
# T2: M58(D172K) (Synechococcus elongatus PCC 7942, UniProt Q03513 1-539, D172K)
# T2 construct: CcmM (M58), Synechococcus elongatus PCC 7942, point mutant in the γCAL domain (head-to-head salt bridge); also called SeM58-D172K; M58oxD172K; source: E. coli BL21 (DE3), purified as wild-type M58; not shown: His6-ubiquitin, N-terminal, cleaved
# T2 sequence (looked up): T1 sequence (looked up) with D164R, D172K
# T3: RbcL8 core complex of Rubisco (Synechococcus elongatus PCC 7942)
# T3 chain: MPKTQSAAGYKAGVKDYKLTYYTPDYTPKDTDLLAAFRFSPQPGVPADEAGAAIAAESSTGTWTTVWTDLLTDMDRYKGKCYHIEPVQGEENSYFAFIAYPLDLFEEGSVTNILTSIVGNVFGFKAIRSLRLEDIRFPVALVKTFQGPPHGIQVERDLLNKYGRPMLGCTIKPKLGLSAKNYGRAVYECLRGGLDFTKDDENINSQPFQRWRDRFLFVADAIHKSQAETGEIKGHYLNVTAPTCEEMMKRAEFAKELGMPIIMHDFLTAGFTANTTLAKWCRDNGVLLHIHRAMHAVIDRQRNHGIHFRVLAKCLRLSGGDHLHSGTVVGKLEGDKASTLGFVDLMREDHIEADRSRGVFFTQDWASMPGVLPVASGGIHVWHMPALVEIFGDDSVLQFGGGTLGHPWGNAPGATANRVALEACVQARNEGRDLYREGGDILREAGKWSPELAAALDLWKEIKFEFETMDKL
# B1: γCAL-2S (domain or fragment, Synechococcus elongatus PCC 7942, UniProt Q03513 1-429, looked up)
# chain: MPSPTTVPVATAGRLAEPYIDPAAQVHAIASIIGDVRIAAGVRVAAGVSIRADEGAPFQVGKESILQEGAVIHGLEYGRVLGDDQADYSVWIGQRVAITHKALIHGPAYLGDDCFVGFRSTVFNARVGAGSVIMMHALVQDVEIPPGRYVPSGAIITTQQQADRLPEVRPEDREFARHIIGSPPVIVRSTPAATADFHSTPTPSPLRPSSSEATTVSAYNGQGRLSSEVITQVRSLLNQGYRIGTEHADKRRFRTSSWQPCAPIQSTNERQVLSELENCLSEHEGEYVRLLGIDTNTRSRVFEALIQRPDGSVPESLGSQPVAVASGGGRQSSYASVSGNLSAEVVNKVRNLLAQGYRIGTEHADKRRFRTSSWQSCAPIQSSNERQVLAELENCLSEHEGEYVRLLGIDTASRSRVFEALIQDPQGPV
# notes: C-terminal truncation of CcmM (M58), Synechococcus elongatus PCC 7942, with the γCAL domain and two SSUL modules, residues 1-429; also called SeγCAL-2S(1–429); γCAL-2Sox; source: E. coli BL21 (DE3), purified as M58; not shown: His6-ubiquitin, N-terminal, cleaved
# B2: β-class carbonic anhydrase CcaA of Synechococcus elongatus PCC 7942 (enzyme, UniProt P27134 1-272, looked up)
# chain: MRKLIEGLRHFRTSYYPSHRDLFEQFAKGQHPRVLFITCSDSRIDPNLITQSGMGELFVIRNAGNLIPPFGAANGGEGASIEYAIAALNIEHVVVCGHSHCGAMKGLLKLNQLQEDMPLVYDWLQHAQATRRLVLDNYSGYETDDLVEILVAENVLTQIENLKTYPIVRSRLFQGKLQIFGWIYEVESGEVLQISRTSSDDTGIDECPVRLPGSQEKAILGRCVVPLTEEVAVAPPEPEPVIAAVAAPPANYSSRGWLAPEQQQRIYRGNAS
# notes: CcaA (~30 kDa), Synechococcus elongatus PCC 7942; ccaA gene amplified from genomic DNA; 272 residues (last 17 are 256-272); For microscopy labelled at the N terminus with Alexa405 and mixed 1:10 with unlabelled protein; also called CcaAAF4; source: E. coli BL21 (DE3), purified (Ni-NTA, H6Ub cleaved, SEC); not shown: His6-ubiquitin, N-terminal, cleaved
# B3: Rubisco holoenzyme (RbcL8S8) of Synechococcus elongatus PCC 7942 (complex)
# chain 1: T3 chain
# chain 2: MSMKTLPKERRFETFSYLPPLSDRQIAAQIEYMIEQGFHPLIEFNEHSNPEEFYWTMWKLPLFDCKSPQQVLDEVRECRSEYGDCYIRVAGFDNIKQCQTVSFIVHRPGRY
# B4: CcmM full-length protein M58 of Synechococcus elongatus PCC 7942 (natural protein, UniProt Q03513 1-539, looked up)
# chain: T1 sequence (looked up) with D164R
# notes: CcmM (M58, ~58 kDa), Synechococcus elongatus PCC 7942; full-length ccmM gene amplified from genomic DNA; SeCcmM (1-539); Used reduced (M58red, 5 mM DTT) or oxidized (M58ox, 2 mM H2O2; disulfides in SSUL modules); For microscopy labelled at the N terminus with Alexa532 and mixed 1:10 with unlabelled protein; also called SeM58; M58red; source: E. coli BL21 (DE3), purified (Ni-NTA, H6Ub cleaved with …)
# Tests used:
# [1] = biological target: the molecule itself; assay: turbidity assay; one protein alone (homodemixing: association of trimers into a homocondensate); 50 mM KCl; M58ox 0.5–3.0 μM, M58red 5 and 6 μM; truncations and point mutants oxidized at 3 μM; M58-C4S and CCTRIM35 at 5 μM; 25 °C
# M58(R164D) = biological target: T1, M58(R164D); assay: turbidity assay; absorbance at 340 nm, 25 °C, 50 mM Tris-HCl pH 8.0, 10 mM Mg(OAc)2; 0.5 μM CcaA or its mutants (0–1.25 μM for the apparent KD) with 0.5 μM M58 or its truncations and mutants, 0.75 μM γCAL198 or 2.25 μM M35; 100 mM KCl (50–400 mM in the salt series); reducing (5 mM DTT) or oxidizing; apparent; a protein alone: association of its oligomers into condensates; conditions: both partners purified
# [2] = biological target: B4; assay: as above; conditions: both partners purified
# M58(D172K) = biological target: T2, M58(D172K); assay: as above; conditions: both partners purified
# [3] = biological target: β-class carbonic anhydrase CcaA of Synechococcus elongatus PCC 7942 (Synechococcus elongatus PCC 7942) (UniProt P27134); assay: SEC-MALS; 2 mg/ml protein; 50 mM Tris-HCl pH 8.0/150 mM KCl or 50 mM Tris-HCl pH 8.0/500 mM KCl/5 mM DTT; 25 °C; oligomeric state in solution
# [4] = biological target: B4; assay: turbidity assay; 0.25 μM Rubisco (RbcL8S8) with increasing M58red, M58ox, CCTRIM35red or CCTRIM35ox at 50 mM KCl; or with 0.25 μM M58, 0.25 μM CCTRIM35 or 0.75 μM M35 at 50 and 100 mM KCl; reducing or oxidizing; apparent; conditions: both partners purified
# [5] = biological target: T3, RbcL8 core complex of Rubisco; assay: turbidity assay; 0.25 μM RbcL8 with M58red or M58ox at varied concentrations; M35red or M35ox with RbcL8 as controls; 50–200 mM KCl; conditions: both partners purified
# [6] = biological target: CcmM full-length protein M58 of Synechococcus elongatus PCC 7942 (Synechococcus elongatus PCC 7942) (UniProt Q03513); assay: SEC-MALS; 2 mg/ml protein; 50 mM Tris-HCl pH 8.0/150 mM KCl or 50 mM Tris-HCl pH 8.0/500 mM KCl/5 mM DTT; 25 °C; oligomeric state in solution
binder,measurement,setting,value
B1,binding result,[1],binds
B2,binding result,M58(R164D),binds
same,Kd,[2],~200 nM
same,binding result,M58(D172K),binds
same,stoichiometry N,[3],4
B3,Kd,[4],~70 nM
B4,fold lower affinity than for the Rubisco holoenzyme,[5],~4 fold
same,stoichiometry N,[6],3
